One assay deals with primary glial cells. The assay can be described thus: Gene delivery to primary cultures of glial cells. The assay is classed as cell-based, rat. How it is done: Primary cultures of glial cells were established from the cortices of 20-day old embryonic Wistar rats. Individual cells were collected as described above. The cells were plated at a density of 4×10^5 viable cells/cm^2 on poly-L-lysine/laminin coated dishes and grown to confluence for 7 days in DMEM/F12 medium supplemented with 10% FCS. The day before transfection, the cells were detached and plated into coated microplates at a density of 2.5×10^4 cells per well. Gene delivery complexes were also tested on primary cultures of cortical neurons and glial cells in a similar fashion. […] Four hours later, an equal volume of DMEM-F12/N2 was added. One to two days after transfection, the cell culture medium was removed and the cells were rinsed in phosphate-buffered saline (PBS). Enough Reporter Lysis Buffer (Promega, Wisconsin, Md., USA) to cover the bottom surface was added to each well (50 μl/well for 48-well plates). After one freeze-thaw cycle, the lysates were tested for luciferase activity using the Luciferase Assay System (Promega) and a single-tube luminometer (Berthold Lumat L B 9507, Bad Wildbad, Germany). The total protein concentration of each lysate was determined using the DC Protein assay (Bio-Rad, Hercules, Calif., USA). The results were expressed in relative light units (RLU) per milligram of total protein.

The target in the next assay is T1, TrkA (Rattus norvegicus, UniProt P35739).
T1 construct: endogenous in cells; host or cells: PC12 (rat pheochromocytoma, ATCC)
The assay can be described thus: Phospho-TrkA immunoblot in PC12 cells. The format is cell-based. On the procedure: (§1) Immunoblotting experiments were conducted to test whether the chimeric polypeptides could, like NGF, induce autophosphorylation of TrkA and activation of its signal transduction pathways. PC12 cells were seeded in 6-well plates at a density of 2×10^6 cells/well and cultured in RPMI 1640 containing 0.5% FBS and 0.25% horse serum for 2 days. The low serum concentrations were necessary to reduce the basal levels of phosphorylation. The medium was refreshed two hours before beginning treatment. The cells were incubated with the polypeptides or NGF in serum-free medium for 15–20 min. The cells were then washed in PBS, lysed, and sonicated. The cell lysates were resolved by SDS-PAGE and transferred to a nitrocellulose membrane for immunoblotting. The primary antibodies used include Phospho-TrkA (Tyr490) antibody, Phospho-p44/p42 MAPK (Thr202/Tyr204) monoclonal antibody, and Phospho-Akt (Ser473) monoclonal antibody, all obtained from Cell Signaling Technology (Beverly, Mass., USA). Colorimetric detection was performed by standard techniques after using horse-radish peroxidase-conjugated secondary antibodies. In some experiments, TrkA tyrosine kinase inhibitors K-252a or AG879 (both from Calbiochem, La Jolla, Calif., USA) were used. In these cases, PC12 cells were incubated with 100 nM K-252a or 10 μM AG879 before addition of polypeptides or NGF.

The subject of assay [1] is lumbar segment of the spinal cord. The assay is described as follows: Gene delivery in vivo, intrathecal injection, lumbar spinal cord. The arrangement: species or system rat. Conditions: 3 μg pCAGluc, PEI600 N/P 5, peptide N/P 5, intralumbar, 3 days. An excerpt: In vivo gene delivery was studied by intrathecal injections of adult Wistar rats (8 weeks old, 180–200 g). The rats were anesthetized by intraperitoneal injection of sodium pentobarbital. After the skin around L4–L5 was exposed, the gene delivery complex was slowly injected into the subarachnoid space using a syringe. A slight tail movement accompanied correct placement of the needle. After injection, the syringe was left in place for five minutes to limit diffusion caused by backflow pressure. Multiple injections were sometimes required to deliver the full volume of the complex. After injection, the skin was closed with surgical clips and the animals were kept warm until they recovered. […] The lumbar segment of the spinal cord and the lumbar dorsal root ganglia were excised. The tissues were homogenized in 100–400 μl of Reporter Lysis Buffer (Promega) depending on size and subjected to three freeze-thaw cycles. The lysates were centrifuged at 14000 g for 5 min at 4° C. The supernatant was tested for luciferase activity using the Luciferase Assay System (Promega) in a single-tube luminometer (Berthold Lumat LB 9507). The readings were normalized by the total protein content of the lysates, as measured by the DC Protein assay (Bio-Rad).

Another assay has as its system Akt. The assay is described as follows: Phospho-Akt immunoblot in PC12 cells. The following applies: 5 μM peptide, 20 min. The format is cell-based, rat. On the procedure: as §1
The test system of assay [2] is PC12 cells. The assay can be described thus: PC12 neurite outgrowth assay. The assay is classed as cell-based, rat. The following applies: 8 μM, 3 days. On the procedure: Chimeric polypeptides were examined for their ability to induce neurite outgrowth in PC12 cells. Polypeptides in a range of concentrations were added to PC12 cells cultured in serum-enriched RPMI-1640 medium. The cells were incubated for three days and photographed every 24 h.

In assay [3] the test system is plasmid DNA. The assay can be described thus: Ethidium bromide displacement assay. The assay is classed as binding. The following applies: 0.8 μg DNA pre-mixed with ethidium bromide. How it is done: In this assay, the quenching of the fluorescence of ethidium bromide intercalated in DNA is used to measure DNA-binding and condensing ability. Ethidium bromide (153 μl of a 0.01% solution) was added to 96 μg of plasmid DNA and diluted with water to a final volume of 6 ml. In wells of a 96-well microplate, various amounts of polypeptide were placed in a volume of 50 μl, to which 50 μl of the DNA-ethidium bromide solution was added. After five minutes of mixing, 100 μl of water was added. The fluorescence reading was taken using wavelengths of 485 nm for excitation and 593 nm for emission on a SPECTRAFluor Plus microplate reader (TECAN, Maennedorf, Switzerland).

Assay [4] relates to plasmid DNA. The assay can be described thus: DNA retardation assay (agarose gel electrophoresis). The format is binding. On the procedure:
This assay qualitatively assesses the ability of a polypeptide or polycation to bind to DNA and thus to retard its migration (by decreasing its charge/mass ratio) through an agarose gel under electrophoresis. For a range of N/P ratios, polypeptide was added to 0.1 μg of plasmid DNA made up to 20 μl with either HEPES-buffered saline (HBS, 150 mM NaCl, 29 mM HEPES, pH 7.3) or 5% glucose. The mixtures were vortexed and incubated at room temperature for 30 minutes before being subjected to electrophoresis in a 0.8–1.0% Tris-borate-EDTA agarose gel stained with ethidium bromide for visualization under ultraviolet light.

The subject of assay [5] is PC12 cells. The assay can be described thus: PC12 cell survival assay (MTT, serum-free medium). The format is cell-based, rat. The following applies: 8 μM, deprived of serum and NGF for 3 days. On the procedure: Undifferentiated or differentiated (by 6-day treatment with 10 ng/ml NGF) PC12 cells seeded onto collagen-coated 96-well plates were exposed to serum-free RPMI-1640 medium containing either NGF or various concentrations of chimeric polypeptides. After 3–4 days of incubation, cell viability was measured by the standard MTT assay. Cell survival was expressed as a percentage of the viability of the NGF-treated control.

Bridge positions count the residues as written; N and C are the ends. Ends that are not written are not given here.

T1 sequence (P35739 33-799): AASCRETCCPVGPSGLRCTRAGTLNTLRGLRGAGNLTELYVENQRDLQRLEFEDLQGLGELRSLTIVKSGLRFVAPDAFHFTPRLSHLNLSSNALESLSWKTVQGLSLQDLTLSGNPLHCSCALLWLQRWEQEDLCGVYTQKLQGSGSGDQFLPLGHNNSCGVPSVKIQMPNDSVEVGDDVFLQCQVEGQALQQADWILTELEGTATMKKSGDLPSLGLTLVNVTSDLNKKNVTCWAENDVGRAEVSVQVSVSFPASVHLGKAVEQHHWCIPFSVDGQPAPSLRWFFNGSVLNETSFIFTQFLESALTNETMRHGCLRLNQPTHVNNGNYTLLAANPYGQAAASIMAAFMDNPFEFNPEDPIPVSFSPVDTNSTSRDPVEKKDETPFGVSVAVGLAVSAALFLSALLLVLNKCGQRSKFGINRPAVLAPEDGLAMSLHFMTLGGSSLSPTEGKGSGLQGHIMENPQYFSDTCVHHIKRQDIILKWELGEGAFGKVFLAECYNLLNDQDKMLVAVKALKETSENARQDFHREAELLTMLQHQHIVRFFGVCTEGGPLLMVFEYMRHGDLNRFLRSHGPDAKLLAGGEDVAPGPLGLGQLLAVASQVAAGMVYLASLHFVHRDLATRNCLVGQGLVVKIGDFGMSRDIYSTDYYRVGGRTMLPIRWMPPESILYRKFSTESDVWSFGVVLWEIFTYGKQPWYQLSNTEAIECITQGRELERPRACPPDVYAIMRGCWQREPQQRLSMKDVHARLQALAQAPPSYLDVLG

Regarding “CTTTHTFVKALTMDGKQAAWRFIRIDTACKKKKKKKKKK (CTTTHTFVKALTMDGKQAAWRFIRIDTACKKKKKKKKKK; disulfide 1-29) [NL4-10K]”, the “difference between transfection efficiencies of NL4-10K and 10K” value in the assay with primary glial cells (peptide/DNA 0.75 nmol/μg (N/P ratio of 2.5), chloroquine) is given as “not significant”. Moreover, the “activation (phosphorylation) of TrkA” value in the assay with TrkA (5 μM peptide, 20 min) was “induced activation”. For the same molecule, in the assay with TrkA (NL4-10K/DNA complexes (N/P ratio of 5)), the “activity when complexed with DNA” value is listed as “retained its activity”. Also, in assay [1], the “transfection in spinal cord near the lumbar injection site relative to 10K control” value is “decreased relative to the 10K control”. The “activation (phosphorylation) of Akt” value in the assay with Akt is “induced activation”.

B1: SPKR4NL1-2: chimeric protein: (SPKR)4 DNA-binding domain, α-helical linker, targeting domain with loops 1 and 2 of NGF (aa 17–67), His10 tag (protein)
chain: MGHHHHHHHHHHSSGHIEGRHMSPKRSPKRSPKRSPKRGGTYLSEDELKAAEAAFKRHNPTGSCSVSVWVGDKTTATDIKGKEVMVLGEVNINNSVFKQYFFETKCRDPNPVDSG
modifications: SPKR4NL1-2
With B1, the “difference between SPKR4NL1-2 and (SPKR)4 triple complexes” value in the assay with primary glial cells (0.25 μg/well pCAGluc, PEI600, 24 h) is given as “essentially no difference”. Moreover, the “activation of TrkA (phospho-TrkA Western blot)” value with TrkA (8 μM, 20 min) was “activates TrkA”. Also, in the assay on PC12 cells [2], the neurite outgrowth result was “promotes neurite outgrowth”. Besides, the “N/P ratio at which ethidium bromide fluorescence dropped sharply (DNA condensation)” value with plasmid DNA [3] was “about 10 N/P ratio”. Besides, in the assay on plasmid DNA [4], the “DNA binding / retardation of DNA migration (in words)” value is on record as “reduced the mobility of DNA”. In addition, the “PC12 viability as % of maximum NGF-promoted survival rate” value in the assay on PC12 cells [5] came out at 80%.
